Results taken from patent US20050203007A1 (REGENTS OF THE UNIVERSITY OF MICHIGAN, published 2005).

Legend:
secreted, soluble furin [1] = molecular target: T1, secreted, soluble furin (human, UniProt P09958 108-715, limits assumed); assay: rapid furin inhibition assay; table lists substitutions with equal or enhanced inhibition of furin relative to the template
T1 construct: Secreted, soluble construct; also called human furin
Method: 3. Rapid screening of libraries. Libraries were introduced into E. coli BL21 (DE3) cells and individual, cloned transformants were grown by shaking at 37° C. in 200 μl LB containing […] kanamycin in 96-well, 0.45 μm GHP membrane filter plates (Gelman) (FIG. 2). When O.D. 600 values reached 0.4, 60 μl of culture were transferred to secondary 96-well plates (Falcon), adjusted to 10% glycerol, and stored at −80° C. These frozen stocks served as master copies of the libraries. IPTG was added to the cultures to a final concentration of 1 mM, and the cultures were allowed to express eglin c variants for one hour in the filter plate. Expressed eglin c variants were extracted from the cells with 50 mM Tris-HCl pH 8.0 containing 2 mM EDTA following freezing and thawing. These extracts were collected as filtrates by centrifugation of the filter plate above a second plate. The filtrates, representing partially purified eglin c variants, were analyzed using a rapid fluorescence-based assay for processing enzyme inhibition as described below in Section 5. […] Frozen cells were cultured in 50 to 100 ml culture volumes, and DNA maxipreps were performed; the DNA preparations were then sequenced by automated DNA sequencing. Selected variants were expressed and purified on a larger scale, and affinities for furin or Kex2 were examined quantitatively (see below).
5. Rapid protease inhibition assay. Novel eglin variants were diluted 50-fold and incubated with secreted, soluble furin (0.5 nM) for 15 min in 96-well plates. The furin substrate (Boc-Arg-Val-Arg-Arg-MCA) was added, and release of AMC was monitored continuously in a 96-well fluorescence plate reader for 20 min, as described under Example 1. […] The plasmid DNA encoding such eglin c variant inhibitors were isolated and sequenced.

secreted, soluble Kex2 [2] = molecular target: T2, secreted, soluble Kex2 (Saccharomyces cerevisiae, UniProt P13134 114-613, limits assumed); assay: affinity of purified variants, enzyme inhibition
T2 construct: Secreted, soluble construct; also called kexin
T2 sequence (looked up): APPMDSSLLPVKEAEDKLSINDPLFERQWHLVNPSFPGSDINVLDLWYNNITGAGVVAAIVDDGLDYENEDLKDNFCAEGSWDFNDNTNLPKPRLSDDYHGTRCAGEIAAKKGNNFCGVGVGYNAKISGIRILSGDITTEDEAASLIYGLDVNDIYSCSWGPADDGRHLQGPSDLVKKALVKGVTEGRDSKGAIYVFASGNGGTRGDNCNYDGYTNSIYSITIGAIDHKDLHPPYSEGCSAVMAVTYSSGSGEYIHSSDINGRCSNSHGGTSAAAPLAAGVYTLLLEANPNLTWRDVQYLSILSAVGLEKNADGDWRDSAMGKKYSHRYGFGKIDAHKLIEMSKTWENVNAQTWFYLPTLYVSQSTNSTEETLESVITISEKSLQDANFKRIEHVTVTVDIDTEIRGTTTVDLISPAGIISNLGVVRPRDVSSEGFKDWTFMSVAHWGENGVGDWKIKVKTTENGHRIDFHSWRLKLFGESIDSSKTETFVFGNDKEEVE

secreted, soluble Kex2 [3] = molecular target: T2, secreted, soluble Kex2; assay: enzyme inhibition, purified variant
human PC7 = molecular target: T3, human PC7 (human, UniProt Q16549 142-667, limits assumed); assay: enzyme inhibition, purified variant
T3 sequence (looked up): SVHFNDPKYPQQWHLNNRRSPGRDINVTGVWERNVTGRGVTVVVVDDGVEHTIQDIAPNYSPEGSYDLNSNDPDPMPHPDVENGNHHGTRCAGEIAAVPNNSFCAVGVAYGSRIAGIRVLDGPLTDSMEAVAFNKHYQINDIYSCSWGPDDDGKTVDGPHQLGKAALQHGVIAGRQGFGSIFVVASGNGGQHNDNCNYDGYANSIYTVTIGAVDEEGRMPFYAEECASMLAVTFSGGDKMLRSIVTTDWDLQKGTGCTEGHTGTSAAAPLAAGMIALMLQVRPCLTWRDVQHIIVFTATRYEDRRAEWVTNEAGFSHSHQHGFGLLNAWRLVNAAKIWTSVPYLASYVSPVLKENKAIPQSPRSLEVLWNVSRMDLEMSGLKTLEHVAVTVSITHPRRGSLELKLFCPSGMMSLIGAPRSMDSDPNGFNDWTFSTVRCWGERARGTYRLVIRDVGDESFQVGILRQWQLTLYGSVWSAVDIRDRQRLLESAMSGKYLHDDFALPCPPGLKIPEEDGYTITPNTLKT

secreted, soluble furin [4] = molecular target: T1, secreted, soluble furin; assay: enzyme inhibition, purified variant
secreted, soluble Kex2 [5] = molecular target: T2, secreted, soluble Kex2; assay: equilibrium enzyme inhibition
Method: (§1) Thus, R1-eglin refers to substitution of Arg at position P1.
(§2) Affinities of eglin variants with secreted, soluble Kex2 (hereafter “Kex2”; Brenner, C. and Fuller, R. S. (1992) Proc. Natl. Acad. Sci. USA 89: 922-926) and secreted, soluble furin (hereafter, “furin”; Bravo, D. A. et al (1994) J. Biol. Chem. 269: 25830-25837; and Komiyama & Fuller (2000) Biochemistry 39: 15156-15165) were measured by incubating variants with the enzymes (˜0.5 to 2.0 nM) for 45 min to 1 h at 21° C. in one of two enzyme assay buffers. For Kex2, the buffer was 200 mM Bistris (pH 7.27) containing 1 mM CaCl₂ and 0.1% Triton X-100; and for furin, the buffer was 20 mM NaMES (pH 7.0) containing 1 mM CaCl₂ and 0.1% Triton X-100 for furin.

secreted, soluble furin [6] = molecular target: T1, secreted, soluble furin; assay: equilibrium enzyme inhibition
Method: as §1, §2

secreted, soluble Kex2 [7] = molecular target: T2, secreted, soluble Kex2; assay: equilibrium enzyme inhibition, fluorogenic substrate
Method: (§3) Affinities of eglin variants with secreted, soluble Kex2 (hereafter “Kex2”; Brenner, C. and Fuller, R. S. (1992) Proc. Natl. Acad. Sci. USA 89: 922-926) and secreted, soluble furin (hereafter, “furin”; Bravo, D. A. et al (1994) J. Biol. Chem. 269: 25830-25837; and Komiyama & Fuller (2000) Biochemistry 39: 15156-15165) were measured by incubating variants with the enzymes (˜0.5 to 2.0 nM) for 45 min to 1 h at 21° C. in one of two enzyme assay buffers. For Kex2, the buffer was 200 mM Bistris (pH 7.27) containing 1 mM CaCl₂ and 0.1% Triton X-100; and for furin, the buffer was 20 mM NaMES (pH 7.0) containing 1 mM CaCl₂ and 0.1% Triton X-100 for furin. 100 to 200 μL aliquots of reaction mixtures were transferred into triplicate wells of opaque 96 well plates (Costar), and residual enzyme activity was measured with an fmax fluorescence micro plate reader (Molecular Devices) by monitoring hydrolysis of a fluorogenic substrate Boc-Arg-Val-Arg-Arg-MCA. Data were graphically analyzed (KaleidaGraph) with an equation developed by Green and Work (1953). Site-directed mutagenesis at P2 and P6 of eglin c generated temporary inhibitors (Table 3) and exhausted possibility to improve affinity further with this approach.

secreted, soluble furin [8] = molecular target: T1, secreted, soluble furin; assay: as above
Method: as §3

secreted, soluble Kex2 [9] = molecular target: T2, secreted, soluble Kex2; assay: enzyme inhibition, purified variant; remark: listed apart in the source
Method: as §3

secreted, soluble furin [10] = molecular target: T1, secreted, soluble furin; assay: enzyme inhibition, purified variant; remark: listed apart in the source
Method: as §3

T1 sequence (P09958 108-715 limits assumed): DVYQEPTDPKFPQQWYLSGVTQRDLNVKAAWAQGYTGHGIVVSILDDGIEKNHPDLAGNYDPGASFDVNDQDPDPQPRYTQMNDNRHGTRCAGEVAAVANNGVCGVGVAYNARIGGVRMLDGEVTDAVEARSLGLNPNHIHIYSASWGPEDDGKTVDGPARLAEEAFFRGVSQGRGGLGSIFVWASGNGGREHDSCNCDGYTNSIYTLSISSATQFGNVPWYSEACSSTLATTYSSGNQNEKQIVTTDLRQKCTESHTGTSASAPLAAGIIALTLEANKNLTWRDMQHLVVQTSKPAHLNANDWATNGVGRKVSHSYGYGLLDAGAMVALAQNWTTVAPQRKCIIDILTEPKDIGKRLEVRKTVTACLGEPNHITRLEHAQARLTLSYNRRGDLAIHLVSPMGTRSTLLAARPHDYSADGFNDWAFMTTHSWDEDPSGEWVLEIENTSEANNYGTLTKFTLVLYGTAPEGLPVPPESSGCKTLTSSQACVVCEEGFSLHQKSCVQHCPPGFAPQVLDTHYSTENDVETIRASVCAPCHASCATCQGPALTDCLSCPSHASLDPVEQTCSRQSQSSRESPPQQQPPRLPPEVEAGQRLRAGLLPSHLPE

B1: Asn50Asp-R4K1-eglin (designed binder)
chain: SMGSELKSFPEVVGKTVDQAREYFTLHYPQYDVYFLPEGSRVTKDLRYDRVRVFYNPGTNVVNHVPHVG
binding result (secreted, soluble furin [1]): binds

B2: Asp33Gly-R4K1-eglin (designed binder)
chain: SMGSELKSFPEVVGKTVDQAREYFTLHYPQYGVYFLPEGSRVTKDLRYNRVRVFYNPGTNVVNHVPHVG
binding result (secreted, soluble furin [1]): binds

B3: Glu39Cys-R4R1-eglin (designed binder)
chain: SMGSELKSFPEVVGKTVDQAREYFTLHYPQYDVYFLPCGSRVTRDLRYNRVRVFYNPGTNVVNHVPHVG
binding result (secreted, soluble Kex2 [2]): binds | binding result (secreted, soluble furin [1]): binds

B4: Met49-R4R1-eglin (designed binder)
chain: SMGSELKSFPEVVGKTVDQAREYFTLHYPQYDVYFLPEGSRVTRDLRMNRVRVFYNPGTNVVNHVPHVG
notes: R4R1 template; N-terminal Met removed
Ki (secreted, soluble Kex2 [3]): 1 nM | Ki (human PC7): 1.4 nM | Ki (secreted, soluble furin [4]): 1.6 nM

B5: Glu39Gly-R4R1-eglin (designed binder)
chain: SMGSELKSFPEVVGKTVDQAREYFTLHYPQYDVYFLPGGSRVTRDLRYNRVRVFYNPGTNVVNHVPHVG
binding result (secreted, soluble Kex2 [2]): binds | binding result (secreted, soluble furin [1]): binds

B6: M4K1-eglin (designed binder)
chain: SMGSELKSFPEVVGKTVDQAREYFTLHYPQYDVYFLPEGSMVTKDLRYNRVRVFYNPGTNVVNHVPHVG
notes: N-terminal Met removed
fold decrease of Ka relative to M4R1-eglin (secreted, soluble Kex2 [5]): 13.2 fold | fold decrease of Ka relative to M4R1-eglin (secreted, soluble furin [6]): 4.7 fold | Ki (secreted, soluble Kex2 [7]): 4.5 nM | Ki (secreted, soluble furin [8]): 17000 nM

B7: Gly40Ala-R4R1-eglin (designed binder)
chain: SMGSELKSFPEVVGKTVDQAREYFTLHYPQYDVYFLPEASRVTRDLRYNRVRVFYNPGTNVVNHVPHVG
binding result (secreted, soluble furin [1]): binds

B8: Asp33Val-R4K1-eglin (designed binder)
chain: SMGSELKSFPEVVGKTVDQAREYFTLHYPQYVVYFLPEGSRVTKDLRYNRVRVFYNPGTNVVNHVPHVG
notes: R4K1 template; N-terminal Met removed
Ki (secreted, soluble Kex2 [9]): 1.2 nM | Ki ratio (to R4K1- template) (secreted, soluble Kex2 [9]): 0.476 | Ki (secreted, soluble furin [10]): 17 nM | Ki ratio (to R4K1- template) (secreted, soluble furin [10]): 0.455

B9: Tyr49Ala-R4R1-eglin (designed binder)
chain: SMGSELKSFPEVVGKTVDQAREYFTLHYPQYDVYFLPEGSRVTRDLRANRVRVFYNPGTNVVNHVPHVG
notes: R4R1 template; N-terminal Met removed; also called Ala49-R4R1-
Ki (secreted, soluble Kex2 [3]): 1 nM | Ki (human PC7): 2.9 nM | Ki (secreted, soluble furin [4]): 1.8 nM | Ki (secreted, soluble Kex2 [9]): 1 nM | Ki ratio (to R4R1- template) (secreted, soluble Kex2 [9]): 1.1 | Ki (secreted, soluble furin [10]): 1.3 nM | Ki ratio (to R4R1- template) (secreted, soluble furin [10]): 0.526 | fold increase in affinity (relative to R4R1-eglin) (secreted, soluble furin [10]): ~2 fold

B10: Leu37Gly-R4K1-eglin (designed binder)
chain: SMGSELKSFPEVVGKTVDQAREYFTLHYPQYDVYFGPEGSRVTKDLRYNRVRVFYNPGTNVVNHVPHVG
notes: as for B8
Ki (secreted, soluble Kex2 [9]): 1.6 nM | Ki ratio (to R4K1- template) (secreted, soluble Kex2 [9]): 0.625 | Ki (secreted, soluble furin [10]): 29 nM | Ki ratio (to R4K1- template) (secreted, soluble furin [10]): 0.769

B11: Tyr35Ile-R4R1-eglin (designed binder)
chain: SMGSELKSFPEVVGKTVDQAREYFTLHYPQYDVIFLPEGSRVTRDLRYNRVRVFYNPGTNVVNHVPHVG
binding result (secreted, soluble furin [1]): binds

B12: Asp33Ile-R4K1-eglin (designed binder)
chain: SMGSELKSFPEVVGKTVDQAREYFTLHYPQYIVYFLPEGSRVTKDLRYNRVRVFYNPGTNVVNHVPHVG
binding result (secreted, soluble furin [1]): binds

B13: Ser49-R4R1-eglin (designed binder)
chain: SMGSELKSFPEVVGKTVDQAREYFTLHYPQYDVYFLPEGSRVTRDLRSNRVRVFYNPGTNVVNHVPHVG
notes: as for B4
Ki (secreted, soluble Kex2 [3]): 0.21 nM | Ki (human PC7): 2.5 nM | Ki (secreted, soluble furin [4]): 4.8 nM

B14: Glu49-R4R1-eglin (designed binder)
chain: SMGSELKSFPEVVGKTVDQAREYFTLHYPQYDVYFLPEGSRVTRDLRENRVRVFYNPGTNVVNHVPHVG
notes: as for B4
Ki (secreted, soluble Kex2 [3]): 0.036 nM | Ki (human PC7): 2.9 nM | Ki (secreted, soluble furin [4]): 0.53 nM

B15: Leu47Val-R4R1-eglin (designed binder)
chain: SMGSELKSFPEVVGKTVDQAREYFTLHYPQYDVYFLPEGSRVTRDVRYNRVRVFYNPGTNVVNHVPHVG
binding result (secreted, soluble furin [1]): binds

B16: Trp49-R4R1-eglin (designed binder)
chain: SMGSELKSFPEVVGKTVDQAREYFTLHYPQYDVYFLPEGSRVTRDLRWNRVRVFYNPGTNVVNHVPHVG
notes: as for B4
Ki (secreted, soluble Kex2 [3]): 1.2 nM | Ki (human PC7): 0.47 nM | Ki (secreted, soluble furin [4]): 10 nM

B17: R4-eglin (designed binder)
chain: SMGSELKSFPEVVGKTVDQAREYFTLHYPQYDVYFLPEGSRVTLDLRYNRVRVFYNPGTNVVNHVPHVG
notes: N-terminal Met removed; also called R4L1-eglin
fold increase in affinity relative to L1-eglin (secreted, soluble Kex2 [5]): 5 fold | fold enhancement of affinity relative to L1-eglin (secreted, soluble furin [6]): 2 to 3 fold | Ki (secreted, soluble Kex2 [7]): 100000 nM | Ki (secreted, soluble furin [8]): 56000 nM

B18: Gly40Pro-R4R1-eglin (designed binder)
chain: SMGSELKSFPEVVGKTVDQAREYFTLHYPQYDVYFLPEPSRVTRDLRYNRVRVFYNPGTNVVNHVPHVG
binding result (secreted, soluble furin [1]): binds
